Results: patent US12534533B2, “Anti-chemokine like receptor 1 humanized antibodies and their therapeutic applications” (OSE IMMUNOTHERAPEUTICS, priority 2019, dated 2026)

Assays:
CT26 cells = assay: CT26 colon carcinoma model; type: in vivo, mice; details: 20 μg/injection i.p. for 3 weeks from d4; FIG. 9A-C
Procedure: FIG. 9. Effect of an anti-CMKLR1 antibody on 2 different colon carcinoma mice models. Two mice models were studied, and animals received isotype control antibody (3G8) (x) or anti-CMKLR1 (2G1) (□) at 20 μg/injection intraperitoneally for 3 weeks. A-C. Results in the CT26 colon carcinoma model comparing single treatment with p84 (A) and 2G1 (B) with combined therapy with both antibodies (C). D: Results in the MC38 colon carcinoma model.
8-week old C57bl/6J male mice were anesthetized with 3% of isoflurane. Mice were shaved on the flank and MC38 cells (0.5·10≢cells/mouse) cell lines were injected subcutaneously with an insulinic syringe (30 Gauges) in 50 μL of PBS. Another model was used, in which 8-week old Balb/c male mice were anesthetized with 3% of isoflurane. Mice were shaved on the flank and CT26 cells (1.10≢cells/mouse) were injected subcutaneously with an insulinic syringe (30 Gauges) in 50 μL of PBS.
The agonistic anti-CMKLR1 antibody (2G1) or an anti-SIRPa antibody (p84-anti-mouse SIRPa from Merck Millipore) (SIRPa is a new checkpoint inhibitor) were injected once a week (20 μg/injection) intraperitoneally for 3 weeks starting at d4 after tumor inoculation alone or combined.

[1] = target: T1, CMKLR1 peptide (loop EL3 of CMKLR1, SEQ ID No: 60) (Homo sapiens, UniProt Q99788); assay: ELISA binding on CMKLR1 peptide; details: compared to isotype control; FIG. 12
T1 sequence (Q99788 275-307 limits assumed): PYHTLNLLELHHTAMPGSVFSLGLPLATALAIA
Procedure: FIG. 12. Binding analysis of the anti-CMKLR1 antibody on a CMKLR1 peptide by ELISA. The binding of the 2G1 antibody (□) on the CMKLR1 EL3 loop (SEQ ID No: 18) was compared to the isotype control antibody (3G8) (x) by measuring the OD at 450 nm by ELISA.
CMKLR1 peptide (273NH2-[…]-COOH305) (SEQ ID No: 60) (5 μg/ml) was coated in borate buffer overnight. Saturation was performed with PBS-Tween 0.1%-Gelatin 0.25% for 2 hours at 37° C. Then, 2G1 or hIgG1 antibodies were added at different concentrations for 2 hours at 37° C. […] The colorimetric reaction was read with TECAN.

[2] = target: T2, CMKLR1 receptor (CHO-K1 CMKLR1 Gi cells) (Homo sapiens, UniProt Q99788); assay: competition with Chemerin in the production of cAMP by CMKLR1 receptor; type: cell-based; details: antibody 1 μM to 1 nM, chemerin 2 nM; FIG. 18A
T2 construct: host or cells: CHO-K1
T2 sequence (Q99788 1-373): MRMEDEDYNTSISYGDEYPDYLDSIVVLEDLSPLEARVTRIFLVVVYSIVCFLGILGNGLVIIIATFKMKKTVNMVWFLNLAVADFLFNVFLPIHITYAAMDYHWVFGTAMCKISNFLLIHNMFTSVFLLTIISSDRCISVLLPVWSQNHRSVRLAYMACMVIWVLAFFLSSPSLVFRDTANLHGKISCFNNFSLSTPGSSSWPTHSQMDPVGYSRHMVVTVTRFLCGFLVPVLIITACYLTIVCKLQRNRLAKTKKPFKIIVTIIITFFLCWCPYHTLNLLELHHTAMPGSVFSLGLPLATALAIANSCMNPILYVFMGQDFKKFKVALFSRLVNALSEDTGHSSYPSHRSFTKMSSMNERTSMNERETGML
Procedure: The day before the experiment CHO-K1 CMKLR1 Gi cells (Discover'X ref 95-0080C2) were plated in pre-warmed cell reagent then plated in a 96-well plate at 100 μl/well of cells as (Discover'X ref 15-103) and incubated 24 hours at 37° C., in a 5% CO2 humidified incubator for 24 hours.
For the detection cAMP, antibody reagent and cAMP working detection solution was added to the plate for 1 hour at room temperature, then cAMP solution A was added, and cells incubated 3 hours at room temperature in the dark. Bioluminescence was read with a plate reader with 0.5s integration.

[3] = test system: chronic colitis after CD45Rbhigh CD4 T cell transfer in Rag1 knock-out mice; assay: CD45Rb high T-cell transfer chronic colitis model; type: in vivo
Procedure: FIG. 19. Effect of an anti-CMKLR1 antibody in the CD45Rb^high T-cell transfer chronic colitis mouse model. A. Weight variation of treated animals was followed up to sixty days. Animals were treated with isotype control hIgG1 (x) or anti-CMKLR1 antibody (n). B. Histological staining of colon tissue in the mice treated with the anti-CMKLR1 (right) compared to control (left). C. Anatomic pathology scores used to calculate the severity of the pathology and the inflammation (inflammation score, vasculutis score, colon thickness and fibrotic colon wall). D. CD3 and Ly6G infiltration.
Method: CD45Rb^high CD4 T cells were isolated from the spleen of naive mice and sorted on an ARIA FACS after a negative selection of the CD4 T cells by magnetic sorting, then injected intraperitoneally at 0.5·10^6 cells in 100 μL of PBS into 6-weeks old female Rag1 knock-out mice. Anti-CMKLR1 antibody (2G1) or an isotype control were administered from day 32 after the CD45Rb^high CD4 T cell transfer for 3 weeks three times a week at 1 mg/kg. The follow-up of weight was evaluated three times a week and the weight variation was determined over the initial weight. * p<0.05, ** p<0.01.

[4] = test system: Caspase-3 in PMN from healthy volunteers; assay: Caspase-3 expression in PMN by Western Blot; type: cell-based, human; details: coated Ab at 10 μg/mL; 4 h, 6 h, 11 h; FIG. 26B
Procedure: (§1) Neutrophils were isolated from blood of healthy volunteers and cultured for 24 h (Mortality analysis), or 4 h, 6 h, 11 h (Caspase-3 assay), or 5 h (ROS assay) on coated Iso ctrl (cross), chimeric anti-ChemR23 2G1 (square) or different humanized versions of the 2G1 (diamonds). Mortality of PMN was analyzed by incubating PMN with specific markers of the mortality and viability and then counted by picture analysis.
PMN from healthy volunteers were incubated in culture medium with coated Ab at 10 μg/mL for different times and collected for Caspase-3 staining analyzed by Western Blot. The intensity of Capase-3 expression was calculated on WB.

[5] = test system: ROS production by PMN from healthy volunteers; assay: ROS test in PMN; type: cell-based, human; details: coated Ab at 10 μg/mL, after 5 h; FIG. 26C
Procedure: as §1
PMN from healthy volunteers were incubated in culture medium with coated Ab at 10 μg/mL for 24 h or 5 h and stained either with a dead/viability kit (LIVE/DEAD (Invitrogen)) or a specific marker of reactive oxygen species (ROS) respectively. The percentages of positive cells were obtained by analyzing the pictures with ImageJ software.

B1: 2G1: parental chimeric anti-CMKLR1 antibody: heavy chain variable domain SEQ ID No. 37, light chain variable domain SEQ ID No. 49 (antibody, V domains shown)
VH: EVQLVASGGGLVQPGGSLKLSCAASGFTFSSYGMSWVRQTPDRRLELVATINRYGGSTYYPDSVKGRFTISRDNAKNTLYLQMSSLKSEDTAMYYCPRLIYYGNEGDSWGQGTTLTVSS
VL: QIVLTQSPAIMSASPGEKVTMTCSASSSVSFMHWYQQKSGTSPKRWIYDTTKLTSGVPARFSGSGSGTFYSLTISSMEAEDAATYYCQQWNSKPPLTFGPGTKLELKR
With B1 the tumor development (CT26 cells) was “did not demonstrate a clinical effect on the tumor development”, the “binding on the CMKLR1 EL3 loop peptide (OD at 450 nm)” value [1] was “able to bind the polypeptide forming the loop EL3 of CMKLR1” and the “Chemerin-induced inhibition of forskolin-dependent cAMP production” value [2] was “could not revert this inhibition of production”. For the same molecule, the Weight variation ([3]; 1 mg/kg three times a week for 3 weeks from day 32, vs isotype control, FIG. 19A) was “continue to gain weight”, the “anatomic pathology scores, comprising inflammation scores” value ([3]; FIG. 19C) was “lower” and the colon tissue thickness ([3]; histology, FIG. 19B) was “decrease of tissue thickness”. For the same molecule, the fibrotic tissue ([3]; histology, FIG. 19B) was “decrease of fibrotic tissue”, the caspase-3 cleavage [4] was “increases caspase-3 cleavage” and the “ROS production by PMN” value [5] was “increase the ROS production”.
